The values below come from patent publication US20050197296A1, “Agents for preventing and treating thrombocytopenia” (CHUGAI SEIYAKU KABUSHIKI KAISHA, priority 1996, published 2005).

One assay deals with platelet counts. Briefly: Test for single-dose administration to mouse (platelet increasing action). The following applies: single dose 10 μg/kg through the tail vein, 6 and 9 h after the administration. Format: in vivo, C57B1/6N mice. On the procedure: Nine-week old male C57B1/6N mice as purchased from Japan Charles River Co. Ltd. were used in the experiment.
Human PTH(1-84) was dissolved in a citrate buffer (pH 5; containing 0.05% of Tween 80) at final concentrations of 1, 0.2 and 0.04 ˜g/mL so as to prepare the drug solutions to be administered.
Each of the thus prepared drug solutions and a control (citrate buffer) was administered to 15 mice through the tail vein in a volume of 10 mL/kg. […] The administration was initiated at 10 a.m.
After 3, 6 and 9 hours of the administration, five mice were picked up at random from each group of animals and blood samples were withdrawn through the orbital vein. At 10 a.m. on the same day, separate blood samples were taken from untreated mice (four in number) to obtain the preadministration value. Peripheral corpuscle counts were obtained with an automatic corpuscle counter F-800 (TOA MEDICAL ELECTRONICS CO., LTD

Assay [1] has as its system platelet count. Briefly: Test for daily administration to mouse (platelet increasing action). Format: in vivo, C57B1/6N mice. As to conditions: subcutaneous once a day. On the procedure:
Nine-week old male C57B1/6N mice as purchased from Japan Charles River Co., Ltd. were used in the experiment.
Drug solutions to be administered were prepared basically by the same procedure as in Example 1 to give drug concentrations of 5, 20 and 80 μg/mL.
The mice under test were divided into four groups, which were administered subcutaneously with the three drug solutions and a control (citrate buffer) once a day in a volume of 10 mL/kg. […] The administration was initiated at 10 a.m.
On days 5, 7 and 9 after the start of administration, five or six mice were picked up at random from each group of animals and blood samples were withdrawn through the orbital vein. The sampling of blood was timed to occur 24 h of the final administration. Separate blood samples were taken from untreated mice (five in number) to obtain the value for normal mouse. Peripheral corpuscle counts were obtained with an automatic corpuscle counter F-800(TOA MEDICAL ELECTRONICS CO., LTD.).

Assay [2] relates to platelet count. Briefly: Effectiveness of PTH derivative, daily administration to mouse. Format: in vivo, C57B1/6N mice. As to conditions: 200 μg/kg subcutaneous once a day for six days, blood 24 h after final administration. On the procedure: Ten-week old male C57B1/6N mice as purchased from Japan Charles River Co., Ltd. were used in the experiment.
Drug solutions to be administered were prepared basically from human PTH(1-84) and human PTH(1-34) by the same procedure as in Example 1 to give a drug concentration of 20 μg/mL.
Eighteen mice were divided into three groups, which were administered subcutaneously with the two drug solutions and a control (citrate buffer) for six days on a once-a-day basis in a volume of 10 mL/kg. […] The administration was initiated at 10 a.m.
After 24 h of the final administration, a blood sample was withdrawn from each mouse through the orbital vein. Peripheral corpuscle counts were obtained with an automatic corpuscle counter F-800 (TOA MEDICAL ELECTRONICS CO., LTD).

Assay [3] deals with platelet count. As to the kind of experiment: Test for daily administration to rabbit (platelet increasing action). Format: in vivo, Japanese albino rabbits JW/CSK. The following applies: 200 μg/kg subcutaneous daily. On the procedure:
Six 12-15 week old male Japanese albino rabbits JW/CSK were used in the experiment. The animals were individually kept in aluminum rabbit bracket cages Rb-1 (350^w×500^d×350^h mm) in a vavarium in a specific pathogen-free environment under the following conditions: temperature, 24±2° C.; humidity, 50±10%; illumination, light turned on at 5:00 and turned off at 19:00; ventilation, 15 changes/hr. Each animal was supplied with 120 g of a radiation-sterilized feed for rabbits RM (purchased from Funahashi Farm) per day. The animals were also allowed to drink to tap water ad libitum from an automatic water feeder.
Human PTH(1-84) was administered in a volume of 2 mL/vial at a concentration of 200 μg/mL. A solvent was also supplied in a volume of 2 mL/vial. Both the drug and the control were stored at −135° C. until use.
PTH (200 μg/kg) was administered to the rabbits subcutaneously at the back of their neck for 13 consecutive days. The solvent was similarly administered in the same volume as the dose of a rh-PTH solution calculated from their body weight.
Blood samples (0.5 mL) were withdrawn from the rabbits through the lateral auricular vein before the administration and on days 2, 6, 9 and 13 during the administration period. […]

Assay [4] has as its system CFU-GM (precursor cells of granulocytes and macrophages). The following applies: literature report, J. Clin. Invest. Vol. 67, 1263-1269:1981; cited from earlier work.
Assay [5] concerns BFU-E (precursor cells of erythrocytes). The following applies: literature report, J. Clin. Invest. Vol. 67, 1263-1269:1981; cited from earlier work.

B1: human PTH(1-84) (protein, UniProt P01270 32-115, looked up)
Parathyroid hormone: SVSEIQLMHNLGKHLNSMERVEWLRKKLQDVHNFVALGAPLAPRDAGSQRPRKKEDNVLVESHEKSLGEADKADVNVLTKAKSQ
modifications: Parathyroid hormone
With B1, in the assay on platelet counts, the “platelet counts versus control” value is “significant increase in platelet counts over the control”. In addition, in the assay on platelet count [1] (200 and 800 μg/kg, day 5), the platelet count entry is “tendency to increase”. The “platelet count versus control” value in the assay with platelet count [1] (all treated groups (50, 200 and 800 μg/kg), day 7) is reported as “significantly higher in platelet count than the control”. Besides, the platelet increasing action result with platelet count [2] is recorded as “platelet increasing action”. The “platelet count relative to the initial value” in the assay on platelet count [3] (day 2 until day 6) is given as “two to four times as great as the initial value”. Also, in the assay with platelet count [3] (day 13), the “platelet count relative to the initial level” value is given as “substantially returned to the initial level”.

B2: parathyroid hormone (PTH): PTH as studied in the literature report by Meytes et al; form and species not printed (protein, UniProt P01270 32-115, looked up)
Parathyroid hormone: SVSEIQLMHNLGKHLNSMERVEWLRKKLQDVHNFVALGAPLAPRDAGSQRPRKKEDNVLVESHEKSLGEADKADVNVLTKAKSQ
modifications: Parathyroid hormone
For B2, the “in vitro colony formation by CFU-GM” value in assay [4] was “interfered with the in vitro colony formation”. Also, in assay [5], the “in vitro colony formation by BFU-E” value was “interfered with the in vitro colony formation”.
